# Experiment: yeast display, Sf9 membrane polyspecificity reagent, FACS + sequencing; frameworks hold sequencing errors
# In short: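 A nanobody's polyreactivity label depends on the gate it was sorted from. Yeast display cells were stained with 10% biotinylated, detergent-solubilized Sf9 membrane reagent for 1 hour at 4 °C, enriched on streptavidin microbeads and sorted by FACS. The low and high (top ~1%) gates were set on anti-HA fluorescence for expression and streptavidin fluorescence for reagent binding.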
row,Sequence,polyreactivity (PSR sort gate)
1,QVQLVESGGGLVQAGGSLRLSCADSGITFYRYAMGWYRQAPGKERELVATITSSGGRTYYADSVKGRFTISRDNAKNTVYLQLNSLKPEDTAVYYSAAGKFSYRVYYQFRGGNYWGQGTQVTVSS,high polyreactivity
2,QVQLQESGGRLVQAGDSQRLSCASSGNIFRFTDMGWYRQAPGKERELVAAINAGSTTYYADSVKGRFTISRDNAKNTVYLQMNSLKPEDTAFYHCNDPPVYSSTRYGYWGQGTQVTVAS,high polyreactivity
3,QVQLVESGGGLVQAGGSLRLSCAASGSTFVYYAMGWYSQAPGKERELVAAITRSGGRTYYADSVKGRFTNSRDNAKNRVYLQMNSLKPEDTAVYYCAADDYTGYGYWGQGTQVTVSS,high polyreactivity
4,QVQLVESGGGLVQAGVSLRLSCAASGFTFYYNAMGWYRQAPGKERELVAAINYSGGSTYYADSVKGRFTISRDNAKNTVYLQMNSLKPEDTAVYYCNAVGYSVFRRYNYWGQGTQVTVSS,high polyreactivity
5,QVQLVESGGGLVQAGGSLRLSCAASGFTFSRNDMGWYRQAPGKERELLASITTSGGGTYYADSVKGRFTISRDNAKNTVYLQMNSLKPEDTAVYYCAKDWFPWAGYYDFGYWGQGTQVTVSS,low polyreactivity
6,QVQLVESGGGLVQAGGSLRLSCAASGSIFWPYAMGWYRQAPGKERELVAGISSGGSTYYADSVKGRFTISRDNAKNTVYLQMNSLKPEDTAVYYCAARWQWLNGYYYWGQGTQVTVSS,high polyreactivity
7,QVQLVESGGGLVQAGGSLRLSCAASGSTFYKYAMGWYRQAAGKERELVASISRSGGSTSYADSVKGRFTISRDNAKNTVYLQMNCLKPEDTAVYYCAATWRQHPGSMGYWGQGTQVTVSS,high polyreactivity
8,QGQLVESGGGLVQAGGRLRLSCAAAGGIFYSNRMGWYRQATGKEREMVAAITGGDITDYADSVKGRFTISRDNAKNTDYLQMNSLKPEDTAVYYCAGESNPPDYGPRFGSWGQGTQVSVSS,low polyreactivity
9,QVQLVESGGGLFQAGGSLRLSCAASGRIFQYHAMGWYRQAPGKERELVAAIRRGRGSTYYADSVKGRFTISRDYAKNTVYLQMNSLKPVDTAVYYCAARRKRVSFYPEYDFWGQGTQVTVSS,low polyreactivity
10,QVQLVESGGGLVQAGGSLRLSCAASGRTFYVYDMGWYREAPGKVRELVAFISSSGSTNYADSVKGRFTISRDNAKYTVYLQMNSLKPEDTAGYYCNKRLIYYRGTYYSRRFDYWGQGTQVTVSS,high polyreactivity
11,QVQLVESGGGLVQAGGSLRLSCAASGRIFGDYAMGWYRQAPGKERELVAGINFSGGSTYYADSVKGRFTISRDNAKNTVYLQMNSLKPEDTAVYYCNVDSSTIWYLVPGDYWGQGTQVTVSS,low polyreactivity
12,QVQLVESGGGLVQAGGSLRLSCAASGSIFNDNVMGWYRQAPGKERELVAGISRSGTRTYYADSVKGRFTISRDNAKNTVYLQMNSLKPEDTAVYYCAAAYGQARRYNGSQYGSWGQGTQVTVSS,high polyreactivity
13,QVQLVESGGGLVQAGGSLRLSCAASGLTFSYYAMGWYRQAPGKERELVAAITSGGNTNYADSVKGRFTISRDNAKNTVYLQMNSLKPEDTAVYYCAARFYFTRSFPRKFYYWGQGTQVTVSS,high polyreactivity
14,QVQLVESGGGLVQAGGSLSLSCAASGLTFSWYTMGWYRPAPGKERELVAAISWSGVSTYYADSVMGRFTISRDNAKNTVYLQMNSLKPEDTAVYYCAAAKTGRGRGTTGYGYWGQGTQVTVSS,high polyreactivity
15,QVQLVESGGGLVQAGGSLRLSCPASGSIFYYYAMGWYRQAPGKERELVAAIRGSGSSTYYADSVKGRFTISRDNAKNTVYLQMNSLKPEDTAVYYCAAYDLLVGLQYDYWGQGTQVTVSS,low polyreactivity
16,QVQLEESGGGLVQAGGSLRLSCAASGFIITWYTMGWYRQAPGKERELVAAITSGGNTNYADSVKGRFTISRDNAKNTVYLQMNCLKPEDTAVYYCARGYLASRLKFAKYDYWGQGTQVTVSS,high polyreactivity
17,QVQLVESGGGLVQAGGSLRLSCAASGSTFRVYAMGCYRQAPGKERELVAAISGSGGSTYYADSVKGRFTISRDNAKNTVYLQMNSLKPEDTAVYYCAARSWYTEYYWGQGTQVTVSS,high polyreactivity
18,QVQLVDSGGGLVQAGGSLRLSCAASGSTFPDNAMGWYRQAPGKERALVAAIRWTGGSTYYADSVKGRFTISRDNAKNTVYLQMNSLKPEDTAVYYCNTAYTVSWRSPYDYWGQGTQVTVSS,high polyreactivity
19,QVQLVESGGGLVQAGGSLRLSCAPSGRTFWAYAMGWYRQAPGKERELVAAITRSGTTTSYADSVKGRFTISRDNAKNTVYLQMNSLKPEDTAVYYCNARPIRVYINSAQHYDYWGQGTQVTVSS,high polyreactivity
20,QVQLVESGGGLVQAGGSLRLSCAASGLTLTYYPMGLYRQAPGKERELVAAISSSGGSTYYADSVKGRFTISRDNAKNTVYLQMNSLKPEDSAVYDCAATRVSWTGRDDYWGQGTQVTVSS,high polyreactivity
21,QVQLVESGGGLVQAGGSLRLSCASSGRIFDGYAMVWYRQAPGKERELVATISSGGSTYYADSVKGRFTISRDNAKNTVYLQMNSLKPEDTAVYYCAADSWVQFDYWGQGTQVTVSS,low polyreactivity

row,Sequence,polyreactivity (PSR sort gate)
1,QLQLVESGGGLVQAGGSLSLSCAASGRIFYVYAMGWYRQAPGKEREFVAAITRRSGSTYYADSVKGRFTISRDNAKNTVYFQMNSLKPEDTSVYYCNARLKYAIPQVPPYDYWGQGTQVTVSS,high polyreactivity
2,QVQLLESGGGLVQEGGSLRLSCAASGFIFSKNVMGWYRHAPGKERELVARITRSGGTTYYADSVKGRFTISRDNAKYTVYLQMNSLKPEDTAVYYCAARRYGYTSITWYDYWGQGTQVTVSS,high polyreactivity
3,QVQLVESGGGLVQAGGSLRLSCAASGRTFTRIAMGWYRPAPGKERELVAAIRWRGGGSTYYADSVKGRFTISRDNAKNTVYLQMNSLKPEDTAVYYCNARRYTGTGSAWYYYWGQGTQVTVSS,high polyreactivity
4,QVQIVESGGGLVQAGGSLRLSCAASGSIFGTNTMGWYRPAPGKEWEFVAAIRLSDSSTYYADSVKWRFTISRDNAKNTVYLQMNSLKPEDTEVYYCAVDYRAYHYYLYDYWGQGTQVTVSS,low polyreactivity
5,QVQLVESGRGLVQAGGSLRLSCAASGRIFSSNAMVWYRQAPGKERELVAAISQGGGSTYYADSVKGRFTISRDNAKITVYLQMNSLIPEDTAVYYCAAETGYSGYDDSAYEYWGQGTQVTVSS,low polyreactivity
6,QVQLVESGGGLVQAGGSLRLSCAAYSYVMGWNRQAPGKERELVAAISQSGGSTYYADSVKGRFTISRDNPKNTVYLQMNSLKPEDTAVYYCAARREPYQYNQYYSWGQGTKVTVSS,high polyreactivity
7,QVHLVESGGGLVKAGGSLRLSCAASGITFGSYAMGWYRQAPGKERELVAAIDTSGDDTYYADSVKGRFTISRDNAKNTVYLQMNSLKPEDTAVYYCAADFPSAEVDYWGQGTQVTVSS,low polyreactivity
8,QVQLVESGGGLVQAGGSLLLSCAASGSTFDWYVMGWYRPAPGKERELVAAINQGSGSTYYADSVKGRFTISRDNAKNTVYLQMNSLKPEDTAVYYCAADRYGAGYLYWPYDYWGQGTQVTVSS,low polyreactivity
9,QVQLVESGGGLVQAGGSLRLSCAASGFTFRKNAMGWYRQAPGKERELVAAISSGTSTYYADSVKGRFTISRDNAKNTVYLQMNSLKPEDTAVYYCNAVSRKVYPGPMDYWGQGTQVTVSS,high polyreactivity
10,QVQLVESGGGLVQAGGSLRLSCAASGRTFIYYAMGWYRQAPRKERELVATIRGSSTRTYYADSVKGRFTISRDNAKNTVYLQMNSLKPEDTAVYYCAARGTSRKYYYWGQGTQVTVSA,high polyreactivity
11,QVQLVESGGGLVQAGGSLRLSCAASGSIFTGYAMGWYRPAPGKERELVAAITSGGGTYYADSVKGRFTISRDNAKNTVSLQMNSLKPEDTAVYYCATTPGWYKVSRRYGYWGQGTQVTVSS,high polyreactivity
12,QVQLVESGGGLVQAGGSLRLSCAASGRTFQKNTMGWYRQPPGKERELVAAIDYSATTTYYADSVKGRFTSSRDTAKNTVYLQMNSLKPEDTAVYYCAARWSYPRWEFDYWGQGTQVTVTS,high polyreactivity
13,QVQLVESGGGLVQAGGSLRLSCAPSGSIFIYYAMGWYRPAPGKERELVAAINIGGSTYYADSVKGRFTISRDNAKNSVYLQMKSLKPEDTAVYYCNAATWYRVYPYYIIYDYWGQGTQVTVSS,low polyreactivity
14,QVQLVESGGGLVQAGGSLRLSCAASGSTFDIYAMGWYRQAHGKERELVAVISGGEGSTYYADSVKGRFTISRDNAKNTVYLQMNSLKPEDTAVYYCAADYISPGYWDGEYDCWGQGTQVTVSS,low polyreactivity
15,QVQLVESGGGLVQEGGSLRLSCAASGRIFPKYAMGWYRQAPAKERELVAAISQRGGSTYYADSVKGRFTISRDNAKNTVYLQMNSLKPEDTAVYYCAASYYRQSCEYDYWGQGTQVTVSS,low polyreactivity
16,QVQLVESGGGLVQAGGSLRLSCAASGFIFPTYAMGWYRQAPGKERELVATITTNAGGTHYADSVKGRFTISRDNAKNNVYIQMNSLKPEDTAVYYCNAYGPNIYSSRYDYWGQGTQVTVSS,low polyreactivity
17,QVQLVESGGGLVQAGGSLRLSCAASGFIFIRYAMGWYRQAPGKERELVAAISASGVRTYYADSVKGRFTISRDNAKNTVYLQMNSLKPEDTAVYYCAVCSAWVYGIGRYYWGQGTQVTVSS,high polyreactivity
18,QVQIVESGGGLVQAGGSLRLSCAASGSTFGKYAMGWYRQAPGKERELVAAITRRTGSTYYADSVKGRFTISRDNAKNTVYLQMNSLKPEDTAVYYCAARLPQYRYDYWGQGTQVTVSS,high polyreactivity
19,QVQLVESGGGLVQAGGSLRLSCAASGSTFDVNAMGWYRQAPGKERELVAVITSGGSTNYADSVKGRFTISRDNAKNTVYLQMNSLKPEDTAVYYCAKDSRTLYDYWGQGTQVTVSS,low polyreactivity
20,QVQLVESGGCLVQAGGSLRLSCAASGSTFPAYAMGWYRPAPGKERELVAAISRSGGSTYYADSVKGRFTISRDNAKNTVYLQMNSLKPEDTAVYYCAARAAYSYDDGYWGQGTQVTVSS,high polyreactivity
